B1: TPR t1 (parent)
chain: GACCAAUCUGCCCUCAGAGCUCGAGAACAUCUUCGGAUGCAGAGGAGGCAGGCUUCGGUGGCGCGAUAGCGCCAACGUCCUCAACCUCCAAUGCAUCCCACCACAUGAUGAUGCCUGAAGAGCCUUGGUUUUUUG

Variants of: B1
Experiment: polymerase ribozyme fitness, log enrichment relative to wild type (log ratio); higher = more active; in vitro selection for triplet polymerase activity
Method in brief: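 Each subunit of a heterodimeric triplet polymerase ribozyme was represented by a PCR-built, transcribed mutant library that underwent triplicate single-round in vitro selection with frozen incubation at −7 °C. Extended constructs were recovered by gel excision, streptavidin-bead capture and RT-PCR, and Illumina sequencing of input and output libraries kept genotypes with ≥10 input reads and ≥1 read per output. Fitness is the logarithm of genotype enrichment relative to wild-type enrichment, from inverse-variance-weighted replicate averages, with a logarithm base of 2.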

First: A5U C22U A50U U54G
Second: G63U C64G
The “polymerase ribozyme fitness (log ratio)” value of the first is lower: -6.42 for the first, -4.92 for the second.

Going from G19U G42A to C8A A43U G71C, the “polymerase ribozyme fitness (log ratio)” value rises from -3.15 to -2.95.

Going from G10A A41C C53G U133C to A46C C56G C72G U87A A100U C124A, the “polymerase ribozyme fitness (log ratio)” value rises from -1.29 to -0.516.

Compared with C11G C53G C62A C89A G122U, C31U G51A C73U U106A is lower in “polymerase ribozyme fitness (log ratio)” value: -3.13 for the first, -3.91 for the second.

Going from C56G U130C to U106A G135U, the “polymerase ribozyme fitness (log ratio)” value rises from -1.02 to -0.228.

First: C34U C85U
Second: G52C U131A
The “polymerase ribozyme fitness (log ratio)” value of the first is lower: -4.13 for the first, -0.555 for the second.

First: C12U C49A C62A C70A U78A
Second: U7G C12U C20A
The “polymerase ribozyme fitness (log ratio)” value of the first is lower: -4.12 for the first, -1.34 for the second.

First: A5C C11G A41C G71C C104U
Second: C13U A24G G36U C53U C79G C98U C99A
The “polymerase ribozyme fitness (log ratio)” value of the first is higher: -2.45 for the first, -7.05 for the second.

Going from C4G G61U A66U C94A C123U U132A to C49G A90U, the “polymerase ribozyme fitness (log ratio)” value falls from -1.51 to -2.58.

Going from C49A U54A G77U to G17A G61U C104U A111G, the “polymerase ribozyme fitness (log ratio)” value falls from -0.966 to -2.95.

Going from A41G G52A G61C C85U C124A U126C to G25C G120A, the “polymerase ribozyme fitness (log ratio)” value rises from -5.73 to -5.07.

First: C11A G58C
Second: C56U C101U
The “polymerase ribozyme fitness (log ratio)” value of the first is lower: -2.25 for the first, 0.177 for the second.

Going from G17A C28U C62U U109A U116G to C62G C86U, the “polymerase ribozyme fitness (log ratio)” value rises from -5.8 to -1.34.

Going from A24G G71U C86G to G44C C64U A111G, the “polymerase ribozyme fitness (log ratio)” value rises from -3.88 to -0.526.

Going from C8G G39A A43C C64U to U38C A46C C53A C76G C80U C94U, the “polymerase ribozyme fitness (log ratio)” value falls from -2.65 to -2.96.

First: C8G A18U C22G G117U
Second: G10A G51A C70U A119G
The “polymerase ribozyme fitness (log ratio)” value of the first is higher: -2.97 for the first, -4.32 for the second.

First: G10C C40G C56G G77U U112C
Second: C15U G60A U81G C82G A119G G120U C123A
The “polymerase ribozyme fitness (log ratio)” value of the first is higher: -0.0532 for the first, -1.78 for the second.

G45U C94U A111U G127U and C56G G93U G135U are within 0.2 log units of each other in “polymerase ribozyme fitness (log ratio)” value: -3.61 for the first, -3.52 for the second.

Going from C15A U129A to C101A G117C A121U, the “polymerase ribozyme fitness (log ratio)” value falls from -3.18 to -4.18.

Going from C88A G107U to C11A A119U, the “polymerase ribozyme fitness (log ratio)” value rises from -4.63 to -1.67.

Going from G71U A121C to C4U C20U U59G C89G U112A U125A U131C, the “polymerase ribozyme fitness (log ratio)” value falls from 1.43 to -2.82.

Compared with U7G G10U G42U A46C U54A G57A C101U C114U, G44A G58U U81A is higher in “polymerase ribozyme fitness (log ratio)” value: -4.29 for the first, -1.79 for the second.

First: G19U U129G
Second: C4G A121C
The “polymerase ribozyme fitness (log ratio)” value of the first is lower: -4.04 for the first, 0.946 for the second.

Compared with C3G C70U, C73A A90G G107A G117U is lower in “polymerase ribozyme fitness (log ratio)” value: -2.07 for the first, -6.33 for the second.

First: C4G C8U C15A G44U G61A
Second: A37C C70G C79U A121U
The “polymerase ribozyme fitness (log ratio)” value of the first is lower: -4.85 for the first, 0.503 for the second.

First: G51A G63U C80A U96G
Second: C15G C53G C56G G61A
The “polymerase ribozyme fitness (log ratio)” value of the first is lower: -5.76 for the first, -3.41 for the second.

First: C64U A103C G117U
Second: C8A G44C G57C G117C U126A
The “polymerase ribozyme fitness (log ratio)” value of the first is lower: -6.58 for the first, -5.88 for the second.

First: C12A C123U
Second: C49U G52A G71C
The “polymerase ribozyme fitness (log ratio)” value of the first is higher: 0.76 for the first, -5.43 for the second.

Going from U9G G60C U116A to C22A G25C G45C G48U U59A C115U, the “polymerase ribozyme fitness (log ratio)” value falls from -1.45 to -6.59.

First: U21A A27U U92A
Second: G51U C79G U87G
The “polymerase ribozyme fitness (log ratio)” value of the first is lower: -7.38 for the first, -1.09 for the second.

Going from C70A C73U to C34A C76U G120C, the “polymerase ribozyme fitness (log ratio)” value falls from -1.81 to -3.22.

Going from C8U G42U G48U C79A G122A U132A to G69C C104U, the “polymerase ribozyme fitness (log ratio)” value rises from -4.72 to -1.49.

First: C22G G44U
Second: C53G C72G
The “polymerase ribozyme fitness (log ratio)” value of the first is lower: -4.12 for the first, 0.577 for the second.

First: G52U C73U C104G C115A
Second: A5G G42U C56G A91C C115G
The “polymerase ribozyme fitness (log ratio)” value of the first is lower: -6.56 for the first, -3.59 for the second.

Compared with A68U C123U, A5C G58A C89A C94G C101U is higher in “polymerase ribozyme fitness (log ratio)” value: -5.66 for the first, -5.27 for the second.

C12U G61A U92A U126A and A6U C20A G69U C85A are within 0.2 log units of each other in “polymerase ribozyme fitness (log ratio)” value: -4.38 for the first, -4.42 for the second.

First: A5U G63A
Second: A16G C98U
The “polymerase ribozyme fitness (log ratio)” value of the first is higher: -0.665 for the first, -3.02 for the second.

First: C34U G65C C70U G117C A121C
Second: A2U C11U C97G G110C C114U G120C
The “polymerase ribozyme fitness (log ratio)” value of the first is lower: -7.03 for the first, -6.26 for the second.

First: C8A C13A A27G
Second: A6U U9A A26U
The “polymerase ribozyme fitness (log ratio)” value of the first is lower: -4.58 for the first, -1.87 for the second.

Compared with C13G G47A C72U G110C, G10A A29G is higher in “polymerase ribozyme fitness (log ratio)” value: -7.11 for the first, -2.58 for the second.

First: A2G C70A
Second: G44U G47U
The “polymerase ribozyme fitness (log ratio)” value of the first is higher: -1.82 for the first, -2.16 for the second.

In the case of C8U G39C G63A U92G, the “polymerase ribozyme fitness (log ratio)” value is reported as -3.5.
